Test results published in US20140193378A1 (UNIVERSITY OF MIAMI, published 2014).
Non-standard residues stand in square brackets, D forms with d. No end group written: not given here. *: point of attachment. Desaminotyrosyl = O=C(CCc1ccc(O)cc1)*; NMeY = CN[C@@H](Cc1ccc(O)cc1)C(=O)O; Agmatine = N=C(N)NCCCCN*; Nle = CCCC[C@H](N)C(=O)O; Orn = NCCC[C@H](N)C(=O)O; dAbu = CC[C@@H](N)C(=O)O; Abu = CC[C@H](N)C(=O)O; Aoc = NCCCCCCCC(=O)O; GABA = NCCCC(=O)O

T1: human GHRH receptor (human pituitary membrane homogenates) (human, UniProt Q02643 23-423)
T1 construct: whole, on cells; Native receptor in human pituitary membrane homogenates, not on intact cells; also called hGHRH receptor
T1 sequence (looked up): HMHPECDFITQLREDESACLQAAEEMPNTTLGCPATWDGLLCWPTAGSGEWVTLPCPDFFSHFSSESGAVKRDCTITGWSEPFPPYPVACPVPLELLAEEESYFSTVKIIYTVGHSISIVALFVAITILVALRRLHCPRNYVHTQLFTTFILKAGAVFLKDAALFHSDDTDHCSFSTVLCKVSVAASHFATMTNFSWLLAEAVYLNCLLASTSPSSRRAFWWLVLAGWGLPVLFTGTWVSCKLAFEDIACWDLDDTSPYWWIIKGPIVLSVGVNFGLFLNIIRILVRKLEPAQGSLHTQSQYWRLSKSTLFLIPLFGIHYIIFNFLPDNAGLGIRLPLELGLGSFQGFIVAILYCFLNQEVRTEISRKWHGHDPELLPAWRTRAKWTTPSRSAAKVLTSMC

T2: human GHRH receptor (human pituitary membrane homogenates) (human), Q02643
T2 chain: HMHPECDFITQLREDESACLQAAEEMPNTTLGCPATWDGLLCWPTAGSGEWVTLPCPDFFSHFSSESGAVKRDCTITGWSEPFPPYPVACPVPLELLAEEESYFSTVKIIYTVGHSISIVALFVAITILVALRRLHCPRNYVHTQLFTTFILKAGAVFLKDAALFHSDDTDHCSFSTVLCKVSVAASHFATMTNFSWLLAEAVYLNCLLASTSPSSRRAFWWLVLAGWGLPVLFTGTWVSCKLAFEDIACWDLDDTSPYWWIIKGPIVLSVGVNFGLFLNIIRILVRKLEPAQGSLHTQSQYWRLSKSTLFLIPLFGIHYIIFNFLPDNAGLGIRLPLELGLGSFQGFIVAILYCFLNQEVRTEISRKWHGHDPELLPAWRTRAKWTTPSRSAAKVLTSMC

B1: P-25504 [Dat^1, D-Abu^2, Orn^12, Abu^15, Orn^21, Nle^27, Gab^30]hGHRH(1-30)NH2 (peptide)
peptide: [Desaminotyrosyl][dAbu]DAIFTNSYR[Orn]VL[Abu]QLSAR[Orn]LLQDI[Nle]SR[GABA]-NH2
SMILES: CCCC[C@H](NC(=O)[C@@H](NC(=O)[C@H](CC(=O)O)NC(=O)[C@H](CCC(N)=O)NC(=O)[C@H](CC(C)C)NC(=O)[C@H](CC(C)C)NC(=O)[C@H](CCCN)NC(=O)[C@H](CCCNC(=N)N)NC(=O)[C@H](C)NC(=O)[C@H](CO)NC(=O)[C@H](CC(C)C)NC(=O)[C@H](CCC(N)=O)NC(=O)[C@H](CC)NC(=O)[C@H](CC(C)C)NC(=O)[C@@H](NC(=O)[C@H](CCCN)NC(=O)[C@H](CCCNC(=N)N)NC(=O)[C@H](Cc1ccc(O)cc1)NC(=O)[C@H](CO)NC(=O)[C@H](CC(N)=O)NC(=O)[C@@H](NC(=O)[C@H](Cc1ccccc1)NC(=O)[C@@H](NC(=O)[C@H](C)NC(=O)[C@H](CC(=O)O)NC(=O)[C@@H](CC)NC(=O)CCc1ccc(O)cc1)[C@@H](C)CC)[C@@H](C)O)C(C)C)[C@@H](C)CC)C(=O)N[C@@H](CO)C(=O)N[C@@H](CCCNC(=N)N)C(=O)NCCCC(N)=O
notes: also called Peptide 25504
B2: P-21300 [Dat^1, D-Ala^2, Orn^12, Abu^15, Orn^21, Nle^27, Asp^28, Amc^30]hGHRH(1-30)NH2 (peptide)
peptide: [Desaminotyrosyl][dA]DAIFTNSYR[Orn]VL[Abu]QLSAR[Orn]LLQDI[Nle]DR[Aoc]-NH2
SMILES: CCCC[C@H](NC(=O)[C@@H](NC(=O)[C@H](CC(=O)O)NC(=O)[C@H](CCC(N)=O)NC(=O)[C@H](CC(C)C)NC(=O)[C@H](CC(C)C)NC(=O)[C@H](CCCN)NC(=O)[C@H](CCCNC(=N)N)NC(=O)[C@H](C)NC(=O)[C@H](CO)NC(=O)[C@H](CC(C)C)NC(=O)[C@H](CCC(N)=O)NC(=O)[C@H](CC)NC(=O)[C@H](CC(C)C)NC(=O)[C@@H](NC(=O)[C@H](CCCN)NC(=O)[C@H](CCCNC(=N)N)NC(=O)[C@H](Cc1ccc(O)cc1)NC(=O)[C@H](CO)NC(=O)[C@H](CC(N)=O)NC(=O)[C@@H](NC(=O)[C@H](Cc1ccccc1)NC(=O)[C@@H](NC(=O)[C@H](C)NC(=O)[C@H](CC(=O)O)NC(=O)[C@@H](C)NC(=O)CCc1ccc(O)cc1)[C@@H](C)CC)[C@@H](C)O)C(C)C)[C@@H](C)CC)C(=O)N[C@@H](CC(=O)O)C(=O)N[C@@H](CCCNC(=N)N)C(=O)NCCCCCCCC(N)=O
notes: also called Peptide 21300
B3: P-20351 [Ac-N-Me-Tyr^1, D-Ala^2, Gln^8, Orn^12, Abu^15, Orn^21, Nle^27, Asp^28, Agm^29]hGHRH(1-29)NH2 (peptide)
peptide: Ac-[NMeY][dA]DAIFTQSYR[Orn]VL[Abu]QLSAR[Orn]LLQDI[Nle]D[Agmatine]
SMILES: CCCC[C@H](NC(=O)[C@@H](NC(=O)[C@H](CC(=O)O)NC(=O)[C@H](CCC(N)=O)NC(=O)[C@H](CC(C)C)NC(=O)[C@H](CC(C)C)NC(=O)[C@H](CCCN)NC(=O)[C@H](CCCNC(=N)N)NC(=O)[C@H](C)NC(=O)[C@H](CO)NC(=O)[C@H](CC(C)C)NC(=O)[C@H](CCC(N)=O)NC(=O)[C@H](CC)NC(=O)[C@H](CC(C)C)NC(=O)[C@@H](NC(=O)[C@H](CCCN)NC(=O)[C@H](CCCNC(=N)N)NC(=O)[C@H](Cc1ccc(O)cc1)NC(=O)[C@H](CO)NC(=O)[C@H](CCC(N)=O)NC(=O)[C@@H](NC(=O)[C@H](Cc1ccccc1)NC(=O)[C@@H](NC(=O)[C@H](C)NC(=O)[C@H](CC(=O)O)NC(=O)[C@@H](C)NC(=O)[C@H](Cc1ccc(O)cc1)N(C)C(C)=O)[C@@H](C)CC)[C@@H](C)O)C(C)C)[C@@H](C)CC)C(=O)N[C@@H](CC(=O)O)C(=O)NCCCCNC(=N)N
notes: also called Peptide 20351
B4: P-21303 [N-Me-Tyr^1, D-Ala^2, Orn^12, Abu^15, Orn^21, Nle^27, Asp^28, Amc^30]hGHRH(1-30)NH2 (peptide)
peptide: [NMeY][dA]DAIFTNSYR[Orn]VL[Abu]QLSAR[Orn]LLQDI[Nle]DR[Aoc]-NH2
modifications: N-terminus assumed
SMILES: CCCC[C@H](NC(=O)[C@@H](NC(=O)[C@H](CC(=O)O)NC(=O)[C@H](CCC(N)=O)NC(=O)[C@H](CC(C)C)NC(=O)[C@H](CC(C)C)NC(=O)[C@H](CCCN)NC(=O)[C@H](CCCNC(=N)N)NC(=O)[C@H](C)NC(=O)[C@H](CO)NC(=O)[C@H](CC(C)C)NC(=O)[C@H](CCC(N)=O)NC(=O)[C@H](CC)NC(=O)[C@H](CC(C)C)NC(=O)[C@@H](NC(=O)[C@H](CCCN)NC(=O)[C@H](CCCNC(=N)N)NC(=O)[C@H](Cc1ccc(O)cc1)NC(=O)[C@H](CO)NC(=O)[C@H](CC(N)=O)NC(=O)[C@@H](NC(=O)[C@H](Cc1ccccc1)NC(=O)[C@@H](NC(=O)[C@H](C)NC(=O)[C@H](CC(=O)O)NC(=O)[C@@H](C)NC(=O)[C@H](Cc1ccc(O)cc1)NC)[C@@H](C)CC)[C@@H](C)O)C(C)C)[C@@H](C)CC)C(=O)N[C@@H](CC(=O)O)C(=O)N[C@@H](CCCNC(=N)N)C(=O)NCCCCCCCC(N)=O
notes: also called Peptide 21303
B5: P-25503 [N-Me-Tyr^1, Abu^2, Orn^12, Abu^15, Orn^21, Nle^27, Gab^30]hGHRH(1-30)NH2 (peptide)
chain: [NMeY][Abu]DAIFTNSYR[Orn]VL[Abu]QLSAR[Orn]LLQDI[Nle]SR[GABA]-NH2
modifications: N-terminus assumed
SMILES: CCCC[C@H](NC(=O)[C@@H](NC(=O)[C@H](CC(=O)O)NC(=O)[C@H](CCC(N)=O)NC(=O)[C@H](CC(C)C)NC(=O)[C@H](CC(C)C)NC(=O)[C@H](CCCN)NC(=O)[C@H](CCCNC(=N)N)NC(=O)[C@H](C)NC(=O)[C@H](CO)NC(=O)[C@H](CC(C)C)NC(=O)[C@H](CCC(N)=O)NC(=O)[C@H](CC)NC(=O)[C@H](CC(C)C)NC(=O)[C@@H](NC(=O)[C@H](CCCN)NC(=O)[C@H](CCCNC(=N)N)NC(=O)[C@H](Cc1ccc(O)cc1)NC(=O)[C@H](CO)NC(=O)[C@H](CC(N)=O)NC(=O)[C@@H](NC(=O)[C@H](Cc1ccccc1)NC(=O)[C@@H](NC(=O)[C@H](C)NC(=O)[C@H](CC(=O)O)NC(=O)[C@H](CC)NC(=O)[C@H](Cc1ccc(O)cc1)NC)[C@@H](C)CC)[C@@H](C)O)C(C)C)[C@@H](C)CC)C(=O)N[C@@H](CO)C(=O)N[C@@H](CCCNC(=N)N)C(=O)NCCCC(N)=O
B6: P-29703 [N-Me-Tyr^1, Gln^8, Orn^12, Abu^15, Orn^21, Nle^27, Gln-Gab^30]hGHRH(1-30)NH2 (peptide)
chain: [NMeY]ADAIFTQSYR[Orn]VL[Abu]QLSAR[Orn]LLQDI[Nle]SRQ[GABA]-NH2
modifications: N-terminus assumed
SMILES: CCCC[C@H](NC(=O)[C@@H](NC(=O)[C@H](CC(=O)O)NC(=O)[C@H](CCC(N)=O)NC(=O)[C@H](CC(C)C)NC(=O)[C@H](CC(C)C)NC(=O)[C@H](CCCN)NC(=O)[C@H](CCCNC(=N)N)NC(=O)[C@H](C)NC(=O)[C@H](CO)NC(=O)[C@H](CC(C)C)NC(=O)[C@H](CCC(N)=O)NC(=O)[C@H](CC)NC(=O)[C@H](CC(C)C)NC(=O)[C@@H](NC(=O)[C@H](CCCN)NC(=O)[C@H](CCCNC(=N)N)NC(=O)[C@H](Cc1ccc(O)cc1)NC(=O)[C@H](CO)NC(=O)[C@H](CCC(N)=O)NC(=O)[C@@H](NC(=O)[C@H](Cc1ccccc1)NC(=O)[C@@H](NC(=O)[C@H](C)NC(=O)[C@H](CC(=O)O)NC(=O)[C@H](C)NC(=O)[C@H](Cc1ccc(O)cc1)NC)[C@@H](C)CC)[C@@H](C)O)C(C)C)[C@@H](C)CC)C(=O)N[C@@H](CO)C(=O)N[C@@H](CCCNC(=N)N)C(=O)N[C@@H](CCC(N)=O)C(=O)NCCCC(N)=O
B7: P-21301 [N-Me-Tyr^1, Orn^12, Abu^15, Orn^21, Nle^27, Asp^28, Amc^30]hGHRH(1-30)NH2 (peptide)
chain: [NMeY]ADAIFTNSYR[Orn]VL[Abu]QLSAR[Orn]LLQDI[Nle]DR[Aoc]-NH2
modifications: N-terminus assumed
SMILES: CCCC[C@H](NC(=O)[C@@H](NC(=O)[C@H](CC(=O)O)NC(=O)[C@H](CCC(N)=O)NC(=O)[C@H](CC(C)C)NC(=O)[C@H](CC(C)C)NC(=O)[C@H](CCCN)NC(=O)[C@H](CCCNC(=N)N)NC(=O)[C@H](C)NC(=O)[C@H](CO)NC(=O)[C@H](CC(C)C)NC(=O)[C@H](CCC(N)=O)NC(=O)[C@H](CC)NC(=O)[C@H](CC(C)C)NC(=O)[C@@H](NC(=O)[C@H](CCCN)NC(=O)[C@H](CCCNC(=N)N)NC(=O)[C@H](Cc1ccc(O)cc1)NC(=O)[C@H](CO)NC(=O)[C@H](CC(N)=O)NC(=O)[C@@H](NC(=O)[C@H](Cc1ccccc1)NC(=O)[C@@H](NC(=O)[C@H](C)NC(=O)[C@H](CC(=O)O)NC(=O)[C@H](C)NC(=O)[C@H](Cc1ccc(O)cc1)NC)[C@@H](C)CC)[C@@H](C)O)C(C)C)[C@@H](C)CC)C(=O)N[C@@H](CC(=O)O)C(=O)N[C@@H](CCCNC(=N)N)C(=O)NCCCCCCCC(N)=O

Target: T1, human GHRH receptor (human pituitary …)
Assay: radioligand competition vs 125I-JV-1-42 (0.2 nM), human pituitary membranes
From the text: Normal human pituitaries were purchased from the National Hormone and Peptide Program (A. F. Parlow, Los Angeles, County Harbor-UCLA Medical Center, Torrance, Calif.).

| Binder | Relative affinity (Binding potency) vs JI-38 [fold] |
| --- | --- |
| B1 | 3.02 |
| B2 | 1.2 |
| B3 | 1.26 |
| B4 | 2.32 |
| [NMeY][dA]DAIFTQSYR[Orn]VL[Abu]QLSAR[Orn]LLQDI[Nle]D[Agmatine] (also called Peptide 20361) [P-20361 [N-Me-Tyr^1, D-Ala^2, Gln^8, Orn^12, Abu^15, Orn^21, Nle^27, Asp^28, Agm^29]hGHRH(1-29)NH2] | 5.3 |

Target: T2, human GHRH receptor (human pituitary …)
Assay: as above

| Binder | IC50 [nM] | Relative affinity (Binding potency) vs JI-38 [fold] |
| --- | --- | --- |
| B5 | 1.18 | 3.67 |
| [NMeY]ADAIFTQSYR[Orn]VL[Abu]QLSAR[Orn]LLQDI[Nle]SR-NHMe [P-27405 [N-Me-Tyr^1, Gln^8, Orn^12, Abu^15, Orn^21, Nle^27]hGHRH(1-29)NH-CH3] | 1.08 | 4.03 |
| [NMeY]ADAIFTNSYR[Orn]VL[Abu]QLSAR[Orn]LLQDI[Nle]SR[GABA]-NHMe [P-27415 [N-Me-Tyr^1, Orn^12, Abu^15, Orn^21, Nle^27, Gab^30]hGHRH(1-30)NH-CH3] | 3.02 | 1.44 |
| B6 |  | 3.57 |
| B7 | 2.99 | 1.45 |
